Consider ten molecules from patent US20210155689A1 (SHANGHAI PHARMAEXPLORER, published 2021).

Where a chain is given by its changes, count along the chain named.

Test [1] has as its target T1, human LAG-3 ECD (antigen protein of the affinity test) (human, UniProt P18627 23-450).
T1 sequence: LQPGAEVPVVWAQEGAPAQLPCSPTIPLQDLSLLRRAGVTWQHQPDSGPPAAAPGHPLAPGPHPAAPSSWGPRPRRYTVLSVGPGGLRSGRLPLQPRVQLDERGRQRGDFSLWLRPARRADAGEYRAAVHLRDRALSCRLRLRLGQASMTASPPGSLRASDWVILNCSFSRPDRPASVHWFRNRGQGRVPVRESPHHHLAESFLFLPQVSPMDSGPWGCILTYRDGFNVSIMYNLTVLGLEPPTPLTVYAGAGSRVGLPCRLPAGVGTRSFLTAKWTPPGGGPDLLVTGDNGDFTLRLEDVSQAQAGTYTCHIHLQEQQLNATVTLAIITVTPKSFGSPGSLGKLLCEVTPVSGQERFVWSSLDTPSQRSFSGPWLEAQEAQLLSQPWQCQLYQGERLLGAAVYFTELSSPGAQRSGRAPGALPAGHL
The experiment in a line: SPR (CM5 chip), antibody captured by anti-human Fc IgG, antigen protein in flow, 1:1 model. Here is the method:
(§1) First, anti-human Fc IgG was immobilized on the surface of the CM5 chip to 6000-10000 RU by amino coupling method, with FC1 as the reference channel. The coupling process was as follows: a freshly prepared 1:1 mixture of 50 mM NHS and 200 mM EDC was activated for 7 minutes, then injected with 10-50 ug/ml anti-human Fc IgG diluted in 10 mM sodium acetate ph5.0 buffer. The remaining activated sites were blocked with 1M ethanolamine. Then, HBS-EP+ buffer was used to dilute the antibody to be tested to 5 ug/ml (adjustable according to the capture level) and the antibodies were captured on the chip at a flow rate of 10 ul/min to obtain a response value of about 100˜300 RU. Then the antigen protein was diluted to 100 nM (the highest concentration was tentatively 100 nM), and flew through the chip surface at a flow rate of 30 ul/min. If enough signal value was obtained, the antigen-protein was diluted by several concentration gradients, and flew through the chip surface respectively. At the end of each cycle, the chip surface was regenerated with 10 mM Glycine at pH 1.5. The kinetic rate constant needed to be subtracted from the blank control, and the data was fitted with the global fit analysis method 1:1 combination model. The dissociation equilibrium rate constant (KD) was calculated according to the following formula: KD=kd/ka.
The method was the same as that in Example 5.

The target in test [2] is T2, human LAG-3 on cells (HEK293-hLAG-3 stable cell line) (human, UniProt P18627 23-525).
T2 sequence: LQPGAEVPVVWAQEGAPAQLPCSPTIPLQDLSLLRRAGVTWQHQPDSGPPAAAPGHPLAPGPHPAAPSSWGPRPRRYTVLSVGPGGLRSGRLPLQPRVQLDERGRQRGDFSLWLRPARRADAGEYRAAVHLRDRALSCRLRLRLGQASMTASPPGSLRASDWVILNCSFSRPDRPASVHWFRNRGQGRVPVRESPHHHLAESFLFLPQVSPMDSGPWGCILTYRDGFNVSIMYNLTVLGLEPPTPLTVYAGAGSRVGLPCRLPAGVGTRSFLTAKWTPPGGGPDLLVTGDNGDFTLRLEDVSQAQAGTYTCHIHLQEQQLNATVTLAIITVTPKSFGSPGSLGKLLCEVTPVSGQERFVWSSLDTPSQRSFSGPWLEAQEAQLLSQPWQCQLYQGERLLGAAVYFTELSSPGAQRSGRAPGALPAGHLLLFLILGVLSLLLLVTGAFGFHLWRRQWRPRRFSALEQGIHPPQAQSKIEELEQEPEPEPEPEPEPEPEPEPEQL
Nature of the test: FACS, HEK293-hLAG-3, antibody 0.32 nM.

The target in test [3] is T2, human LAG-3 on cells (HEK293-hLAG-3 …). The experiment in a line: FACS, HEK293-hLAG-3, antibody 0.064 nM.
Test [4] has the same target. The experiment in a line: FACS, HEK293-hLAG-3, antibody 0 nM.
Test [5] has the same target. Nature of the test: FACS, HEK293-hLAG-3, antibody 8 nM.
The target is the same in test [6]. Nature of the test: FACS, HEK293-hLAG-3, antibody 1.6 nM.
In test [7] the target is T3, human LAG-3 ECD (antigen protein of the affinity test) (human, UniProt P18627 23-450).
T3 sequence: T1 sequence
Nature of the test: SPR, CM5 chip, antibody captured by anti-human Fc IgG, antigen in flow, 1:1 fit. The procedure:
as §1

Test [8] deals with T2, human LAG-3 on cells (HEK293-hLAG-3 …). Nature of the test: FACS, HEK293-hLAG-3, antibody 40 nM.
Test [9] has the same target. Nature of the test: FACS, HEK293-hLAG-3, antibody 0.013 nM.

B1: 405B8H3-1 (D→E) hot-spot mutated humanized antibody (antibody, V domains shown)
VH: QVQLVQSGAEVKKPGASVKVSCKASGYTFTDYEMHWVRQAPGQGLEWMGATDPETGNSAYNQKFKGRVTMTRDTSTSTVYMELSSLRSEDTAVYYCISTGWNDWGQGTTVTVSS
VL: DIQMTQSPSSLSASVGDRVTITCKASQDINSYLSWFQQKPGKAPKSLIYRADRLLEGVPSRFSGSGSGTDFTLTISSLQPEDFATYYCLQYDEFPYTFGQGTKLEIK
Turning to B1, in test [1], the dissociation constant (Kd) was found to be 2.03 nM, the off-rate (koff) amounted to 0.000158 s⁻¹ and the association rate constant (kon) worked out at 77500 M⁻¹ s⁻¹.

B2: 556F6B8-3 (D→E) hot-spot mutated humanized antibody (antibody, V domains shown)
VH: QVQLQESGPGLVKPSETLSLTCTVSGFSLIKYGVHWIRQPPGKGLEWIGVIWRGGITDYNAAFMSRVTISKDTSKSQVSLKLSSVTAADTAVYYCARWEGPLAMDYWGQGTTVTVSS
VL: DIQLTQSPSFLSASVGDRVTITCKASQDVGTTVAWYQQKPGKAPKLLIYWASTRHTGVPSRFSGSGSGTEFTLTISSLQPEDFATYYCQQYSSYPYTFGQGTKLEIK
In the case of B2, in test [1], the Kd was found to be 33.5 nM, the off-rate constant (koff) amounted to 0.00384 s⁻¹ and the kon is 115000 M⁻¹ s⁻¹.

B3: 556F6B8-3 humanized antibody (antibody, V domains shown)
VH: B2 VH with E99D
VL: B2 VL
As for B3, the Mean fluorescence intensity in test [2] came out at 49; in test [3] it was 21; in test [4], 4; in [5], 94; in test [6], 83; in [8], 98. The Mean fluorescence intensity in test [9] is 10. Besides, in test [7], the Kd was 3.31 nM. In addition, the koff in test [7] was found to be 0.000465 s⁻¹. For the same molecule, the kon in test [7] was found to be 141000 M⁻¹ s⁻¹.

B4: 556F6B8-9 humanized antibody (antibody, V domains shown)
VH: B2 VH with F27G, L29I, I30S, K71V, S76N, V78F, E99D
VL: B2 VL with Q3V, A43S
B4: the Mean fluorescence intensity in test [2] amounted to 5; in [3], 4; in test [4] it was 4; in test [5], 18; in test [6] it was 9; in test [8], 33. Also, in [9], the Mean fluorescence intensity worked out at 4.

B5: 556F6B8-10 humanized antibody (antibody, V domains shown)
VH: B2 VH with L29I, K71V, S76N, V78F, E99D
VL: B2 VL with Q3V, A43S
For the molecule B5, the Mean fluorescence intensity stood at 11 in test [2]; 6 in test [3]; 4 in test [4]; 44 in [5]; 27 in [6]; 54 in test [8]. Further, the Mean fluorescence intensity in test [9] was 4.

B6: 556F6B8-12 humanized antibody (antibody, V domains shown)
VH: B2 VH with Q1R, R97K, E99D
VL: B2 VL with Q3V, A43S
For the molecule B6, the Mean fluorescence intensity stood at 36 in [2]; 15 in [3]; 4 in [4]; 83 in test [5]; 70 in test [6]; 87 in [8]. Also, the Mean fluorescence intensity in test [9] amounted to 8.

B7: 556F6B8-11 humanized antibody (antibody, V domains shown)
VH: B2 VH with E99D
VL: B2 VL with Q3V, A43S
For B7, the Mean fluorescence intensity amounted to 51 in test [2]; 20 in test [3]; 4 in test [4]; 97 in test [5]; 87 in test [6]; 100 in test [8]. This molecule had a Mean fluorescence intensity in [9] of 9.

B8: 556F6B8-7 humanized antibody (antibody, V domains shown)
VH: B2 VH with E99D
VL: B2 VL with Q3V
As to B8, the Mean fluorescence intensity in test [2] worked out at 44; in test [3], 18; in test [4], 4; in test [5], 93; in test [6], 79; in test [8] it was 98. Further, in test [9], the Mean fluorescence intensity was determined as 8. Moreover, the Kd in [7] turned out to be 3.25 nM. Moreover, the koff in [7] was determined as 0.000453 s⁻¹. Also, in test [7], the kon stood at 139000 M⁻¹ s⁻¹.

B9: 405B8H3 mouse-human chimeric antibody (antibody, V domains shown)
VH: QVQLQQSGAELVRPGASVTLSCKASGYTFTDYEMHWVKQTPVHGLEWIGATDPETGNSAYNQKFKGKAIMTADKSSSTAYMELRSLTSEDSAVYYCISTGWNDWGQGTSLTVSS
VL: DIKMTQSPSSMYASLGERVTITCKASQDINSYLSWFQQKPGKSPKTLIYRADRLLDGVPSRFSGSGSGQDYSLTISSLEYGDMGIYYCLQYDEFPYTFGGGTKLEIK
notes: also called mAb103-405B8H3
Turning to B9, in test [1], the Kd was 3.11 nM, the dissociation rate constant (koff) was determined as 0.000164 s⁻¹ and the kon turned out to be 52800 M⁻¹ s⁻¹.

B10: 556F6B8 mouse-human chimeric antibody (antibody, V domains shown)
VH: RVQLKQSGPGLVQPSQSLSITCTVSGFSLIKYGVHWVRQSPGEGLEWLGVIWRGGITDYNAAFMSRLSITKDNSKSQVFFKMNSLQADDTAIYYCAKWDGPLAMDYWGQGTSVTVSS
VL: DIVMTQSHKFLSTSVGDRVSITCKASQDVGTTVAWYQQKPGQSPKLLIYWASTRHTGVPDRFTGSGSGTDFTLTISNVQSEDLADYFCQQYSSYPYTFGGGTKLEIK
notes: also called mAb123-556F6B8
For the molecule B10, in [1], the Kd came to 2.68 nM, the dissociation rate constant (koff) came out at 0.000433 s⁻¹ and the kon amounted to 162000 M⁻¹ s⁻¹.
